Results from US20160115237A1 (UNIVERSITY OF BRITISH COLUMBIA, published 2016).

Legend:
[1] = target: PrP rigid loop peptide … (DSE3) (human)
[2] = target: T1, human Fas receptor (FasR) on the surface of HUVEC cells (human, UniProt P25445 26-335); experiment: flow cytometry on mitomycin C-treated senescent HUVEC cells, antibody at 40 µg/ml
T1 construct: whole, on cells; also called hTNFRSM6; hTNFR6
T1 sequence (looked up): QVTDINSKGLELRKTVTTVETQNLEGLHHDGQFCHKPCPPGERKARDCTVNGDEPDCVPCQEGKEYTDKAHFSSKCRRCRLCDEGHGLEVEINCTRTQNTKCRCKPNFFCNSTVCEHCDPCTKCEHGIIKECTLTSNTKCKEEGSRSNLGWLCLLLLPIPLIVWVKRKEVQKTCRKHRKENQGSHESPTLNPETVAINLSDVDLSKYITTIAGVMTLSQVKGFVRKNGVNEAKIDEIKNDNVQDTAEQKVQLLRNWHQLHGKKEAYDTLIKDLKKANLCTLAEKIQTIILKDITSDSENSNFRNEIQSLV

B1: antibody c-120 (misfolded PrP rigid loop antibody) (antibody)
heavy: QSVEESGGHLVTPGTPLTLTCTVSGIDLSTYAMGWVRQAPGKGLEWIGVITKSGNTYYASWAKGRFAISKTSTTVDLKITSPTTEDTATYFCGRYGIGVSYYDIWGPGTLVTVSSGQPKAPSVFPLAPCCGDTPSSTVTLGCLVKGYLPEPVTVTWNSGTLTNGVRTFPSVRQSSGLYSLSSVVSVTSSSQPVTCNVAHPATNTKVDKTVAPSTCSKPTCPPPELLGGPSVFIFPPKPKDTLMISRTPEVTCVVVDVSQDDPEVQFTWYINNEQVRTARPPLREQQFNSTIRVVSTLPIAHQDWLRGKEFKCKVHNKALPAPIEKTISKARGQPLEPKVYTMGPPREELSSRSVSLTCMINGFYPSDISVEWEKNGKAEDNYKTTPAVLDSDGSYFLYSKLSVPTSEWQRGDVFTCSVMHEALHNHYTQKSISRSPGK
light: AQVLTQTPSPVSAAVGGTVTINCQSSQSLYNKNWLSWYQKKPGQPPKLLIYKASTLESGVSSRFKGSGSGTQFTLTISGVQCDDAATYYCQGEFSCSSADCTAFGGGTEVVVKGDPVAPTVLIFPPAADQVATGTVTIVCVANKYFPDVTVTWEVDGTTQTTGIENSKTPQNSADCTYNLSSTLTLTSTQYNSHKEYTCKVTQGTTSVVQSFNRGDC
- Kd [1]: 100 pM

B2: antibody AMF-3a-118 (misfolded FasR antibody) (antibody, V domains shown)
VH: QSVEESGGRLVTPGTPLTLTCKASGFSLSDSRVSWVRQAPGKGLEWIGIVGIGWNIYHANWAKGRFTISKTSSTTVDLKITSPTVEDTATYFCARGLGGGTVIWGPGTLVTVSL
VL: AQVLTQTPASVSAAVGGTVTISCQSSESVYKNNYLSWFQQKPGQPPKLLIYEASKLASGVSTRFKGSGSGTQFTLTISGVQCDDAATYYCLGEFSCYSGDCGTFGGGTAVVVKG
- binding result [2]: binds
